Laboratory results as given in the supplement of paper PMC10567573.

B1: KCNA3 (parent)
chain: YQSGGRIRRPVNVPIDIFSEEIRF

Variants of: B1
Assay: protein stability index of a GFP-peptide fusion (GPS, HEK-293T) (PSI 1-6); higher = more stable
Settings: c terminus: a fixed tail appended
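Further: lentivirally expressed fusions sorted by FACS into six bins by GFP to DsRed ratio, PSI derived from sequencing read proportions per bin multiplied by bin number.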

In order of falling protein stability index:
1. R8H  4.19
2. R9H  3.44
3. G5W  3.41
4. I7K  3.34
5. R8I  3.3
6. R8Y  3.3
7. N12H  3.14
8. V11E  3.13
9. G4S  3.01
10. I7D  2.92
11. G5H  2.9
12. I7A  2.83
13. P10T  2.83
14. G4K  2.82
15. R6Q  2.79
16. I7W  2.77
17. G4E  2.73
18. P10W  2.7
19. N12S  2.63
20. N12C  2.62
21. G5E  2.58
22. R8A  2.57
23. G5T  2.54
24. I7Q  2.52
25. I7P  2.51
26. G5Q  2.5
27. V11A  2.49
28. R9T  2.48
29. P10G  2.48
30. R8K  2.47
31. R9A  2.45
32. I7M  2.44
33. P10S  2.43
34. V11N  2.42
35. I7G  2.41
36. I7V  2.4
37. V11C  2.39
38. G5A  2.38
39. I7S  2.38
40. I7C  2.38
41. V11R  2.37
42. G5S  2.37
43. G4Q  2.37
44. R9C  2.35
45. R6E  2.34
46. N12Q  2.34
47. G5P  2.32
48. P10A  2.31
49. G4L  2.31
50. R8E  2.3
51. G4T  2.28
52. R9I  2.27
53. R9P  2.26
54. R9E  2.26
55. N12M  2.26
56. R9G  2.23
57. R6H  2.23
58. N12W  2.21
59. G4P  2.21
60. G5K  2.2
61. R8N  2.2
62. V11Y  2.18
63. N12T  2.17
64. I7E  2.17
65. R6D  2.15
66. G4R  2.15
67. R8D  2.13
68. R9N  2.12
69. R6N  2.11
70. N12P  2.11
71. G4M  2.1
72. G5L  2.09
73. R6S  2.08
74. G5R  2.08
75. R8T  2.07
76. G4D  2.07
77. R9S  2.06
78. G4I  2.06
79. R9L  2.05
80. G5V  2.05
81. G4V  2.05
82. I7Y  2.04
83. V11Q  2.03
84. P10C  2.03
85. R8C  2.03
86. R8F  2.03
87. R8M  2.03
88. V11F  2.02
89. G5D  2.02
90. P10E  2.02
91. R8P  2.02
92. V11M  2.01
93. G5N  2
94. G4W  2
95. V11T  1.98
96. G4H  1.97
97. R6V  1.95
98. G5I  1.94
99. N12I  1.93
100. G4C  1.93
101. G4N  1.92
102. R6P  1.91
103. N12K  1.91
104. G5C  1.91
105. I7T  1.91
106. P10V  1.91
107. R6A  1.9
108. R6I  1.9
109. V13A  1.88
110. R9Q  1.87
111. P10D  1.87
112. R6Y  1.86
113. R6W  1.86
114. I7R  1.86
115. R6C  1.85
116. R6G  1.85
117. V11K  1.85
118. N12G  1.83
119. V11P  1.83
120. G4F  1.83
121. R9F  1.81
122. N12A  1.8
123. N12E  1.8
124. N12D  1.8
125. V11G  1.79
126. G4Y  1.79
127. R9K  1.78
128. V13C  1.78
129. P10I  1.78
130. R8V  1.77
131. R6T  1.76
132. P10Y  1.76
133. V11S  1.74
134. I7N  1.73
135. R9Y  1.72
136. V11I  1.7
137. V11D  1.69
138. I7L  1.69
139. G4A  1.69
140. G5F  1.68
141. R8Q  1.67
142. V11H  1.66
143. R6F  1.65
144. P10N  1.64
145. P10R  1.64
146. R9D  1.62
147. I7F  1.62
148. P10M  1.62
149. R9M  1.61
150. P10L  1.6
151. R6K  1.59
152. I7H  1.57
153. P10Q  1.53
154. G5Y  1.49
155. V11L  1.44
156. R8S  1.44
157. R9V  1.41
158. N12V  1.41
159. N12L  1.4
160. P10F  1.39
161. G5M  1.37
162. N12F  1.35
163. P10K  1.33
164. R6L  1.31
165. N12R  1.28
166. R8L  1.26
167. N12Y  1.08
